For test [1], the target named is T1, caspase-3 (Homo sapiens, UniProt P42574).
T1 sequence (P42574 29-175 limits assumed): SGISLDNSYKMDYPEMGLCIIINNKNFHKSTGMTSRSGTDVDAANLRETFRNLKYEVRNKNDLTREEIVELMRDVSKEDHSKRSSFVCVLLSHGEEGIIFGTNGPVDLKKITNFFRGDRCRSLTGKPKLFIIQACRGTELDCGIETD
T1 sequence (P42574 176-277 limits assumed): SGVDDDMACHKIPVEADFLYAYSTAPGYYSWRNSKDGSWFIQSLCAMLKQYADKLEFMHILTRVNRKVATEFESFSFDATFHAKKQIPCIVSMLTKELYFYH
Description: MR parametric map of DEVD-(Tm-DOTA) amide before and after reaction with caspase-3. The class given is biochemical. The following applies: saturation at −51 ppm vs +51 ppm, 9.4 T, 37° C., pH 7.4. On the procedure:
FIG. 16 illustrates […] spectra 998 and MR parametric map 999 of DEVD-(Tm-DOTA) amide 155 before and after adding caspase-3. […] spectra were acquired at 37° C. and pH 7.4 with a continuous wave saturation pulse applied at 31 μT for 4 seconds. The deconvoluted […] spectrum of the product after reaction, showing a […] effect at +8 ppm, is also shown. MR images were acquired at 37° C. and pH 7.4 with a Bruker Biopsin 9.4 T MR scanner. A MSME T1 method was used with TR/TE=1623/10.9 ms and a train of Gaussian-shaped saturation pulses applied at 25 μT for 1.106 s, and with saturation offsets at −51 ppm and +51 ppm. The parametric map was obtained by subtracting the MR image with a saturation offset at −51 ppm from the MR image with saturation offset at +51 ppm. The magnitude of the scale of the original MR images was used as the scale for this parametric map, to properly represent the difference in MRI contrast obtained with different saturation offsets. The […] spectrum of 155 (25 mM, pH 7.4) was recorded by applying selective saturation in 1 ppm increments from +100 ppm to −100 ppm. A […] effect was detected at −51 ppm, which was assigned to the amide most proximal to the lanthanide ion in 155, based on identical results obtained from a similar compound, Tm3^+-DOTAMGly. […] This asymmetry was analyzed by deconvolution to show a […] effect at +8 ppm. […]

Test [2] concerns the target T1, caspase-3. The experiment in a line: […] spectra of DEVD-(Tm-DOTA) amide before and after adding caspase-3. In kind it is biochemical. The text has this: In one embodiment, the caspase-3 substrate DEVD (Asp-Glu-Val-Asp) was elongated using the amino group on one side arm of lanthanide ligand anchored on the polymer support. FIG. 9 illustrates the conversion of the DEVD-(Ln-DOTA) 90 to amino-(Ln-DOTA) 92 through cleavage by caspase-3. […] Accordingly, the enzymatic activity of caspase-3 can be detected by the change in […] effect caused by this biotransformation.
FIG. 16 illustrates […] spectra 998 and MR parametric map 999 of DEVD-(Tm-DOTA) amide 155 before and after adding caspase-3. […] spectra were acquired at 37° C. and pH 7.4 with a continuous wave saturation pulse applied at 31 μT for 4 seconds. The deconvoluted […] spectrum of the product after reaction, showing a […] effect at +8 ppm, is also shown. MR images were acquired at 37° C. and pH 7.4 with a Bruker Biopsin 9.4 T MR scanner. A MSME T1 method was used with TR/TE=1623/10.9 ms and a train of Gaussian-shaped saturation pulses applied at 25 μT for 1.106 s, and with saturation offsets at −51 ppm and +51 ppm. The parametric map was obtained by subtracting the MR image with a saturation offset at −51 ppm from the MR image with saturation offset at +51 ppm. The magnitude of the scale of the original MR images was used as the scale for this parametric map, to properly represent the difference in MRI contrast obtained with different saturation offsets. The […] spectrum of 155 (25 mM, pH 7.4) was recorded by applying selective saturation in 1 ppm increments from +100 ppm to −100 ppm. A […] effect was detected at −51 ppm, which was assigned to the amide most proximal to the lanthanide ion in 155, based on identical results obtained from a similar compound, Tm3^+-DOTAMGly. After 48 nM of caspase-3 was added and the mixture was incubated at 37° C. and pH 7.4 for 1 hour, the […] effect at −51 ppm was decreased and an asymmetrical shape in the […] spectrum was observed near water. This asymmetry was analyzed by deconvolution to show a […] effect at +8 ppm.

From US20090142273A1, “Activatable cest MRI agent” (CASE WESTERN RESERVE UNIVERSITY, priority 2006, published 2009) come the findings set out here.

Regarding DEVD-(Tm-DOTA) amide [compound 155], in test [1], the “change in water MR signal after reaction with caspase-3” value was “no significant change” and the “decrease in water MR signal due to the PARACEST effect before the enzymatic reaction” value is around 14.5%. Also, the “change of PARACEST effect at −51 ppm after caspase-3” value in test [2] (48 nM caspase-3, 37° C., pH 7.4, 1 hour) was “decreased”. Besides, the “PARACEST effect after cleavage by caspase-3 (free amine)” value in test [2] (48 nM caspase-3, 37° C., pH 7.4, 1 hour, by deconvolution) was “+8 ppm”. In test [2] (before caspase-3, 25 mM, pH 7.4, 37° C., 31 μT for 4 seconds), the “PARACEST effect, MR saturation frequency of amide” value was −51 ppm.
